From patent publication US20230357429A1 (JANUX THERAPEUTICS, published 2023)
Read-outs that look alike come from different tables or passages of the source.

T1: Human TROP2 Full length (human, UniProt P09758 31-323)
T1 sequence: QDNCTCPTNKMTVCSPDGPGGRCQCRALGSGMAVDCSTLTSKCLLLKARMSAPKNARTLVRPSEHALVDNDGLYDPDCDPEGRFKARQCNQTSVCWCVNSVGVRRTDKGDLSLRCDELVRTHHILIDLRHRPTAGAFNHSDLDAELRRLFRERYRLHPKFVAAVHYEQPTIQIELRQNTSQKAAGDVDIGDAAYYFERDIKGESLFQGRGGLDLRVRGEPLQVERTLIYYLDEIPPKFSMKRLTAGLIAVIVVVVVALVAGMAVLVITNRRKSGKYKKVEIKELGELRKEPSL

T2: Cyno TROP2 Full length (cynomolgus monkey, UniProt P09758 31-323 (human entry))
T2 chain: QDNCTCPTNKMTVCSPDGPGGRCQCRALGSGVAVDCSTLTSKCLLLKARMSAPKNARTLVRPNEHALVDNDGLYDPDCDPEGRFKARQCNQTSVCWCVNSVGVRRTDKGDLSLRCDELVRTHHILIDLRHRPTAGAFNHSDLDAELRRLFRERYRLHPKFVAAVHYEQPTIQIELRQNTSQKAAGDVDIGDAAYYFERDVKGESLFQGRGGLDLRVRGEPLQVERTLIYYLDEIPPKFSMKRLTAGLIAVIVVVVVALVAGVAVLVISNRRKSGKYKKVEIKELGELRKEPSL

T3: Human TROP2 ECD (31-274 AA), biotinylated (human, UniProt P09758 31-274, biotinylated (site not stated))
T3 construct: also called tumor-associated calcium signal transducer 2; Human TROP2-biotin
T3 sequence: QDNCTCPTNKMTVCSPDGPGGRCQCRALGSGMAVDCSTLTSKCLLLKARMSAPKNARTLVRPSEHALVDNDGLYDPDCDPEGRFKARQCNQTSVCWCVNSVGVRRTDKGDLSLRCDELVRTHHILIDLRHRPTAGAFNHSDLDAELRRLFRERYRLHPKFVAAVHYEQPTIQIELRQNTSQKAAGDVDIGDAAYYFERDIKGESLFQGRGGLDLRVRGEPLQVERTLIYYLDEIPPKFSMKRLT


Experiments:
[1] = biological target: T1, Human TROP2 Full length; assay: cell-based or functional assay
[2] = biological target: T2, Cyno TROP2 Full length; assay: cell-based or functional assay
[3] = biological target: T3, Human TROP2 ECD (31-274 AA), …; assay: ELISA, ratio of EC50 to that of TBD-1 wt
Procedure: (§1) Binding was detected using a standard horse radish peroxidase secondary antibody. The concentration of the TBD required to achieve 50% maximal signal (EC₅₀) was calculated.

[4] = biological target: T3, Human TROP2 ECD (31-274 AA), …; assay: ELISA, biotinylated TROP2 ECD on neutravidin plate, Fab titrated
Procedure: as §1

[5] = biological target: T3, Human TROP2 ECD (31-274 AA), …; assay: BLI (Octet), dissociation half-life from biotinylated human TROP2 ECD
Procedure: (§2) Kinetic binding was measured using biolayer interferometry (BLI). […] The TBDs diluted in buffer were then associated onto the antigen loaded biosensors. Sensors were then transferred to buffer where the TBD constructs then dissociated from the sensors. Association and dissociation rates were measured in real time using an Octet® instrument.

[6] = biological target: T3, Human TROP2 ECD (31-274 AA), …; assay: BLI (Octet), biotinylated human TROP2 ECD on SAX sensor, Fab 6.25-50 nM
Procedure: as §2

[7] = biological target: T3, Human TROP2 ECD (31-274 AA), …; assay: ELISA: biotinylated TROP2 captured on neutravidin plate, Fab titrated, HRP secondary antibody
Procedure: as §1

[8] = biological target: T3, Human TROP2 ECD (31-274 AA), …; assay: as above; remark: listed apart in the source
Procedure: as §1

[9] = biological target: T3, Human TROP2 ECD (31-274 AA), …; assay: ELISA, ratio of EC50 to that of TBD-1 wt; remark: listed apart in the source
Procedure: as §1

[10] = biological target: T3, Human TROP2 ECD (31-274 AA), …; assay: ELISA, biotinylated TROP2 ECD on neutravidin plate, Fab titrated; remark: listed apart in the source
Procedure: as §1

[11] = biological target: T3, Human TROP2 ECD (31-274 AA), …; assay: BLI (Octet), dissociation half-life from biotinylated human TROP2 ECD; remark: listed apart in the source
[12] = biological target: T3, Human TROP2 ECD (31-274 AA), …; assay: BLI (Octet), biotinylated human TROP2 ECD on SAX sensor, Fab 6.25-50 nM; remark: listed apart in the source
Procedure: as §2

Row | Binder | H292 Cytotoxicity EC50 (pM) [1] | CyTROP2 HEK293 EC50 (pM) [2] | Fold shift in EC50 relative to wt [3] | EC50 [4] | t1/2 [5] | Kd [6] | EC50 [7] | EC50 [8] | Fold shift in EC50 relative to wt [9] | EC50 [10] | t1/2 [11] | Kd [12]
1 | PC-31 (bispecific antibody) light: GGVDFCGLYHWPICYQGGGGSGGLSGRSDAGSPLGLAGSGGSDIQLTQSPSSLSASVGDRVSITCKASQDVSIAVAWYQQKPGKAPKLLIYSASYRYTGVPDRFSGSGSGTDFTLTISSLQPEDFAVYYCQQHYITPLTFGAGTKVEIKRTVAAPSVFIFPPSDEQLKSGTASVVCLLNNFYPREAKVQWKVDNALQSGNSQESVTEQDSKDSTYSLSSTLTLSKADYEKHKVYACEVTHQGLSSPVTKSFNRGEC heavy: not shown | > 100000 pM | > 100000 pM |  |  |  |  |  |  |  |  |  | 
2 | PC-47 (bispecific antibody) light: GGVDFCGLYHWPICYQGGGGSGGGGGSGGGGSGGASSGAGGSDIQLTQSPSSLSASVGDRVSITCKASQDVSIAVAWYQQKPGKAPKLLIYSASYRYTGVPDRFSGSGSGTDFTLTISSLQPEDFAVYYCQQHYITPLTFGAGTKVEIKRTVAAPSVFIFPPSDEQLKSGTASVVCLLNNFYPREAKVQWKVDNALQSGNSQESVTEQDSKDSTYSLSSTLTLSKADYEKHKVYACEVTHQGLSSPVTKSFNRGEC heavy: not shown | > 100000 pM | 17300 pM |  |  |  |  |  |  |  |  |  | 
3 | TBD-11 (anti-TROP2 Fab, HC R98A) (Fab, V domains shown, also called TBD-11 (HC R98A mutant)) VH: QVQLQQSGSELKKPGASVKVSCKASGYTFTNYGMNWVKQAPGQGLKWMGWINTYTGEPTYTDDFKGRFAFSLDTSVSTAYLQISSLKADDTAVYFCAAGGFGSSYWYFDVWGQGSLVTVSS VL: DIQLTQSPSSLSASVGDRVSITCKASQDVSIAVAWYQQKPGKAPKLLIYSASYRYTGVPDRFSGSGSGTDFTLTISSLQPEDFAVYYCQQHYITPLTFGAGTKVEIKR |  |  | 19 fold | 3.8 nM | 10 min | 3.88 nM | 3.8 nM |  |  |  |  | 
4 | TBD-16 (anti-TROP2 Fab, HC S103A) (Fab, V domains shown) VH: QVQLQQSGSELKKPGASVKVSCKASGYTFTNYGMNWVKQAPGQGLKWMGWINTYTGEPTYTDDFKGRFAFSLDTSVSTAYLQISSLKADDTAVYFCARGGFGASYWYFDVWGQGSLVTVSS VL: DIQLTQSPSSLSASVGDRVSITCKASQDVSIAVAWYQQKPGKAPKLLIYSASYRYTGVPDRFSGSGSGTDFTLTISSLQPEDFAVYYCQQHYITPLTFGAGTKVEIKR |  |  | 1 fold | 0.2 nM | 103 min | 0.211 nM |  | 0.177 nM |  |  |  | 
5 | TBD-14 (anti-TROP2 Fab, HC F101A) (Fab, V domains shown) VH: QVQLQQSGSELKKPGASVKVSCKASGYTFTNYGMNWVKQAPGQGLKWMGWINTYTGEPTYTDDFKGRFAFSLDTSVSTAYLQISSLKADDTAVYFCARGGAGSSYWYFDVWGQGSLVTVSS VL: DIQLTQSPSSLSASVGDRVSITCKASQDVSIAVAWYQQKPGKAPKLLIYSASYRYTGVPDRFSGSGSGTDFTLTISSLQPEDFAVYYCQQHYITPLTFGAGTKVEIKR |  |  | 193 fold | 38.6 nM | 4 min | 18.7 nM |  | 38.6 nM |  |  |  | 
6 | TBD-12 (anti-TROP2 Fab, HC G99A) (Fab, V domains shown) VH: QVQLQQSGSELKKPGASVKVSCKASGYTFTNYGMNWVKQAPGQGLKWMGWINTYTGEPTYTDDFKGRFAFSLDTSVSTAYLQISSLKADDTAVYFCARAGFGSSYWYFDVWGQGSLVTVSS VL: DIQLTQSPSSLSASVGDRVSITCKASQDVSIAVAWYQQKPGKAPKLLIYSASYRYTGVPDRFSGSGSGTDFTLTISSLQPEDFAVYYCQQHYITPLTFGAGTKVEIKR |  |  | 1 fold | 0.2 nM | 39 min | 0.492 nM | 0.2 nM |  |  |  |  | 
7 | TBD-23 (anti-TROP2 Fab, HC V110A) (Fab, V domains shown) VH: QVQLQQSGSELKKPGASVKVSCKASGYTFTNYGMNWVKQAPGQGLKWMGWINTYTGEPTYTDDFKGRFAFSLDTSVSTAYLQISSLKADDTAVYFCARGGFGSSYWYFDAWGQGSLVTVSS VL: DIQLTQSPSSLSASVGDRVSITCKASQDVSIAVAWYQQKPGKAPKLLIYSASYRYTGVPDRFSGSGSGTDFTLTISSLQPEDFAVYYCQQHYITPLTFGAGTKVEIKR |  |  |  |  |  |  |  | 0.236 nM | 1 fold | 0.2 nM | 34 min | 0.401 nM
8 | TBD-15 (anti-TROP2 Fab, HC G102A) (Fab, V domains shown) VH: QVQLQQSGSELKKPGASVKVSCKASGYTFTNYGMNWVKQAPGQGLKWMGWINTYTGEPTYTDDFKGRFAFSLDTSVSTAYLQISSLKADDTAVYFCARGGFASSYWYFDVWGQGSLVTVSS VL: DIQLTQSPSSLSASVGDRVSITCKASQDVSIAVAWYQQKPGKAPKLLIYSASYRYTGVPDRFSGSGSGTDFTLTISSLQPEDFAVYYCQQHYITPLTFGAGTKVEIKR |  |  | 361 fold | 72.2 nM | 1 min | 5.71 nM |  | 72.2 nM |  |  |  | 
9 | TBD-21 (anti-TROP2 Fab, HC F108A) (Fab, V domains shown, also called TBD-21 (HC F108A mutant)) VH: QVQLQQSGSELKKPGASVKVSCKASGYTFTNYGMNWVKQAPGQGLKWMGWINTYTGEPTYTDDFKGRFAFSLDTSVSTAYLQISSLKADDTAVYFCARGGFGSSYWYADVWGQGSLVTVSS VL: DIQLTQSPSSLSASVGDRVSITCKASQDVSIAVAWYQQKPGKAPKLLIYSASYRYTGVPDRFSGSGSGTDFTLTISSLQPEDFAVYYCQQHYITPLTFGAGTKVEIKR |  |  |  |  |  |  |  | 4.11 nM | 20.5 fold | 4.1 nM | 8 min | 4.76 nM
10 | TBD-20 (anti-TROP2 Fab, HC Y107A) (Fab, V domains shown) VH: QVQLQQSGSELKKPGASVKVSCKASGYTFTNYGMNWVKQAPGQGLKWMGWINTYTGEPTYTDDFKGRFAFSLDTSVSTAYLQISSLKADDTAVYFCARGGFGSSYWAFDVWGQGSLVTVSS VL: DIQLTQSPSSLSASVGDRVSITCKASQDVSIAVAWYQQKPGKAPKLLIYSASYRYTGVPDRFSGSGSGTDFTLTISSLQPEDFAVYYCQQHYITPLTFGAGTKVEIKR |  |  |  |  |  |  |  | 52.2 nM | 262 fold | 52.3 nM | 10 min | 6.34 nM
11 | TBD-22 (anti-TROP2 Fab, HC D109A) (Fab, V domains shown, also called TBD-22 (HC D109A mutant)) VH: QVQLQQSGSELKKPGASVKVSCKASGYTFTNYGMNWVKQAPGQGLKWMGWINTYTGEPTYTDDFKGRFAFSLDTSVSTAYLQISSLKADDTAVYFCARGGFGSSYWYFAVWGQGSLVTVSS VL: DIQLTQSPSSLSASVGDRVSITCKASQDVSIAVAWYQQKPGKAPKLLIYSASYRYTGVPDRFSGSGSGTDFTLTISSLQPEDFAVYYCQQHYITPLTFGAGTKVEIKR |  |  |  |  |  |  |  | 1.1 nM | 5.5 fold | 1.1 nM | 33 min | 2.35 nM
12 | TBD-17 (anti-TROP2 Fab, HC S104A) (Fab, V domains shown, also called TBD-17 (HC S104A mutant)) VH: QVQLQQSGSELKKPGASVKVSCKASGYTFTNYGMNWVKQAPGQGLKWMGWINTYTGEPTYTDDFKGRFAFSLDTSVSTAYLQISSLKADDTAVYFCARGGFGSAYWYFDVWGQGSLVTVSS VL: DIQLTQSPSSLSASVGDRVSITCKASQDVSIAVAWYQQKPGKAPKLLIYSASYRYTGVPDRFSGSGSGTDFTLTISSLQPEDFAVYYCQQHYITPLTFGAGTKVEIKR |  |  |  |  |  |  |  | 0.432 nM | 2 fold | 0.4 nM | 24 min | 0.9 nM
